In patent US20230226096A1 (Orna Therapeutics, Inc., priority 2020, published 2023):

B1: Pegivirus I (nucleic acid)
DNA: AGAATGGTCTAAGTGGTTGCCACCGTGGTCCGAAGGGGAGGAGGACCTACGCTGCCAGGGTTGGCAGGTCGTAAATCCCGGGTGTAGGAGATCCCTCCTTGTTAGGACTGCTGGTAGCTGGGGGGTCGGTGACCCCCTGGGCAACCGCCAAACCCGGACGACCGGGTGGCGGCTCCATGTTGGCACGGTCCACAGGTGTGAACCCTACCGGTGTGAATAAGGGTTGGTGGTTGCGGTCCACCTTAAACGTAGTATGCATTGGGCTTGGTAAAACACCGCTCGTAGTACGGAACGCCGCCTTTAAAGACACAGTAGGCGTAGCCGGCGGGTTGACAATCCATACGGGGGGTGGGGTGTGGTCATGGATCTGTCCACACCACCTTCATGCGGCCCTCTAAGCAAGCCATACCGGGGGGAGGCGCGCGGCACCGCACTGCCGGGCAAGGGGAAGAACCTTCGGGTGACCCCCCCCCAACCACCGTCCGATCAATGCTAATGTTGCGTTTAGGCGTGACACCGGCACA
modifications: Pegivirus I
B2: Pegivirus K (nucleic acid)
DNA: AGAATGGTGTGATCCGTCGCCGCTCCAGCGGAAAGCGGGCGGGATCTAGTGGTTAGGGTTGTTCGCGTAAATCCCACACTAGTGGTACGCTCGTATAACGTGGGAGCAGCCGGTGGGGTCGACCCCCCACCTGGCGGCTGCTGAGCACCGGACGAAGCGCGGGGGGTGAACGCTAACCCGCGGCCCGGGCTGCCAACGTTAGGCACGTCTTGGCTGGAAGACGTTAAACACAGGGCCCCCCCTCAACCCTGATCCGAGGCCAGAGACCAAGGTACGCCGCCCTTTTAAAGGCGTTACTCGTCCAATAGGATCTCTCCGGCGGGTTGTCAAACCTTGCTGGCCCTGGTGATGGTTACGGGAGGGGGTGGGGCGGGGAGTAGAAGCCCCGCCCGGCATGGGGGTACCAAGCTCGGCACGCCCAGCACGCGTGGCGTAGGGGAAAAATCCTTCGGGTGACCCCTGGTACCATAAAGTAATTAACATGAGCATGCCGCTAGGGTGTGCTTTTTCTTCCTTCCTTGGGAAGGCGGTGGCACC
modifications: Pegivirus K
B3: Theiler's disease-associated virus (nucleic acid)
DNA: TGATACCGTGTCCCGGTACGACCTCGCGCGTCCCCAAGCTCGCCCTGAGGGGGGAGCGTAAGGGCGCGTAGTGGGGTAGCCCCCCAAACCGAGCCACCCTAGTGAGTGACTTTAGAATGGTTAGGGAGACTACCGCCTTCGCTGTTTGGGGACCTAATGATCCGCGTGCCAGGGTTCTTCGGGTAAATCCCGGCGCGGTGTTTTGGGTTCAGGGCAGTAGGGGCAGACGGGCCAGCAGTCGCTGGTTCCTGGTACCACCACCCTATCCGGACGACCTCCCTCACGAAAGGTCGCCACGGTCTGTGGCTCGACGACGCCTATAATTCAGTCCGAGGGGCGCAGCCCTCGTTAAACTTAGGCAAGGTTCCTCGCCATTGATTTGGCCAGGGGTTTAAGTGAACGCCGCCCTTTTAATGTTTAATAGGGTTCTTTCCCGGCGGGTTGACAAACACTTCCCTGGGCTCTTCGTTGGCCTCGGTTCCTTGATGCTTCGGCACCCATGAGCGCACAGGGGGGGGACCCTGCGACAGTCCGCCAAGAGGAAAATCCTTCGGGTGACCTCGTGCGCAACCCAATCCCTTCTTCTTCCACATGGCGTGTCTGTGGTGCATGCTGTG
B4: Rodent pegivirus (nucleic acid, listed as Pegivirus sp.)
DNA: GGACTTCGGTCCCCCTGTTACTCTGCGAGCCACCGCAGAGCCAGGGTTGGTACGCCCGAGGTGTTAGACCCCGGCCGAAAGCTCCTAACCATGGGGTTAGTAGGACGTGGTAAATGCCACTGAGGGGTTGGAGAGCTGGTAGAGCGAGTAAGTCGGCGTAAGGCCCGAGTACGGGCCTCCCAGCCCGGGTCAGCCTAAACCTGGCTGTGATACCCGGTGCATGGAGGGCGTGTCCCAACGCTCGATCGCTGTAGGGTGGGTCCCTGCAGTTGGGTGTGGCTACCCTGCTCGTACTGCTTGATAGAGTCCCGGCGGACGGACCAGCTCTCGTCAGTCCGTGGAGTTGCAC
B5: Rosavirus C NFSM6F (nucleic acid)
DNA: CAGGGAGATCTCCATGAATAATCTTTTCCACCCTCTTTAGCGTCTATGCTATTGAGGACGGGTTGGAGCCCCGTTGACCCAGCGTCAGAGTGTGTCGGTAGCAGGCTTTCTGCTCTCGCCCCATGCCGGCCACACCTCCCATTAGTGATGTGAAGGTTGTAAGTTACATGTGAAAAGGTTTCTAATAATTGAGCTGAATGTAGCGATTACCTAAGGTGAGCGGATTCCCCCACGTGGTAACACGTGCCTCTCAGGCCAAAAGCCAAGGTGTTAAAAGCACCCCTTAGGTAGGCCACTACCCCGTGGCCTCAGTTCTCTTAGAAGATTCACTTAGTAGTGTGTGCACTGGCAACTCTTAAGCAGAGCTAGTGAGTGGGCTAAGGATGCCCTGAAGGTACCCGCAGGTAACGTTAAGACACTGTGGATCTGATCAGGGGCTCGAGTGCTGAAGCTTTACAGAGGTAGCTCGAGTTAAAAAACGTCTATGCCCCTCCCCCACGGGAGTGGGGGTTCCCCCACACCAATTTTAGATTGCACT
modifications: Rosavirus C
B6: GB virus C/Hepatitis G virus (nucleic acid)
DNA: CCCCCGGCACTGGGTGCAAGCCCCAGAAACCGACGCCTATCTAAGTAGACGCAATGACTCGGCGCCGACTCGGCGACCGGCCAAAAGGTGGTGGATGGGTGATGACAGGGTTGGTAGGTCGTAAATCCCGGTCACCTTGGTAGCCACTATAGGTGGGTCTTAAGAGAAGGTTAAGATTCCTCTTGTGCCTGCGGCGAGACCGCGCACGGTCCACAGGTGTTGGCCCTACCGGTGGGAATAAGGGCCCGACGTCAGGCTCGTCGTTAAACCGAGCCCGTTACCCACCTGGGCAAACGACGCCCACGTACGGTCCACGTCGCCCTTCAATGTCTCTCTTGACCAATAGGCGTAGCCGGCGAGTTGACAAGGACCAGTGGGGGCCGGGGGCTTGGAGAGGGACTCCAAGTCCCGCCCTTCCCGGTGGGCCGGGAAATGC
B7: Equine Pegivirus 1 (nucleic acid, listed as Pegivirus sp.)
DNA: AGAATGGGGAGTTAACTCCTGGCACTGGCCCGAAGCATGAACTGATCGCGGTGGCAGGGTTCTTCGGGTAAATCCCGGCCGCGTGTTGTGATTGTGTTAGGGCAGGTGACAGTCGGCAGGGTCGACCCCCTGCTTCAGGACCACTGTCTTCCTGGACGACCGTTGCTGAAAAAGGGCCGCCACGGTCTGTAGCTCGCCGACGCTTCTAATTCAGGCCGGAGGACCACGCTCCGTAATCGAGCCCAAGTACTCAAACCCCAGCACCCCTGGGTCACGCCCTACGCCGCCCTTTTAACGCTTCGGCTAATAGGGTCTATCCGGCGGGTTGACAAAGGGCGCAGGGTTACCTGGTACTACGAGCTTGGGTGTCCCTGGGAGTAATCCCAGGGTGCC
B8: Culex theileri flavivirus (nucleic acid, listed as Flavivirus sp.)
DNA: ATATAAATCCCAGTTTGGTTAAACCTATTTCAAGGCTTAAGTTGTTTATTATTTTATCGCCGCTCGTGACTATAAAGTTGCCTAGCGGAGAGAGATAAAGAAGAAGGAGTTCAAGGCTCAGGGCAGGGCGCAAGTTCCCTGGTCCCTAGGCCGCTCGCAGGAAGGAGGAGTGAAGAAGAAGAAAGAGAAGGAGAGGACCACCGCCGAAAGAAGGCAGGTGCCTCACAAGAGGGCCAACCAGCGTGTTGGACCAGTGGCCAACGCCGGACGGCGTGGTGGCCTGCTGGGACGCCTGGGGATTGGATGGAGTGCCTTCCTACAGGAAGACATCGTTCAAGCCATC
B9: Bussuquara virus (nucleic acid)
DNA: AGTATTTCTTCTGCGTGAGACCATTGCGACAGTTCGTACCGGTGAGTTTTGACTTAACGCAGTGAGAAAAGTTTTCGAGGAAAGACGAGAAGCGAATTCTCTGA
modifications: chemistry not fully specified; the letters are possibly those of the target site
B10: Zika Virus (nucleic acid, listed as Zika virus)
DNA: AGTTGTTGATCTGTGTGAGTCAGACTGCGACAGTTCGAGTCTGAAGCGAGAGCTAACAACAGTATCAACAGGTTTAATTTGGATTTGGAAACGAGAGTTTCTGGTC
modifications: chemistry not fully specified; the letters are possibly those of the target site
B11: Yokose virus (nucleic acid, listed as Yokose virus)
DNA: AGTAAATTTTGCGTGCTAGTCGCTGAGCGTCAGACCGCAAAGTGAGTTTTTAGTGATCTAAAGTGAGGAGTTATTCTTACTGTCATCAAACACTACAAATAAACACGTTGAAATTATTTCCGGAAGAACAACTGTCCGGAATCAAAGACG
B12: Equine hepacivirus (nucleic acid, listed as Hepacivirus sp.)
DNA: ACCTCCGTGCTATGCACGGTGCGTTGTCAGCGTTTTGCGCTTGCATGCGCTACACGCGTCGTCCAACGCGGAGGGATTCTTCCACATTACCATGTGTCACTCCCCCTATGGAGGGTTCCACCCCGCCCACACGGAAATAGGTTAACCATACCTATAGTACGGGTGAGCGGGTCCTCCTAGGGCCCCCCCGGCAGGTCGAGGGAGCTGAAATTCGTGAATCCGTGAGTACACGGAAATCGCGGCTTGAACGTCATACGTGACCTTCGGAGCCGAAATTTGGGCGTGCCCCACGAAGGAAGGCGGGGGCGGTGTTGGGCCGCCGCCCCCTTTATCCCACGGTCTGATAGGATGCTTGCGAGGGCACCTGCCGGTCTCGTAGACCATAGGAC
B13: Hepacivirus B (nucleic acid)
DNA: ACCACAAACACTCCAGTTTGTTACACTCCGCTAGGAATGCTCCTGGAGCACCCCCCCTAGCAGGGCGTGGGGGATTTCCCCTGCCCGTCTGCAGAAGGGTGGAGCCAACCACCTTAGTATGTAGGCGGCGGGACTCATGACGCTCGCGTGATGACAAGCGCCAAGCTTGACTTGGATGGCCCTGATGGGCGTTCATGGGTTCGGTGGTGGTGGCGCTTTAGGCAGCCTCCACGCCCACCACCTCCCAGATAGAGCGGCGGCACTGTAGGGAAGACCGGGGACCGGTCACTACCAAGGACGCAGACCTCTTTTTGAGTATCACGCCTCCGGAAGTAGTTGGGCAAGCCCACCTATATGTGTTGGGATGGTTGGGGTTAGCCATCCATACCGTACTGCCTGATAGGGTCCTTGCGAGGGGATCTGGGAGTCTCGTAGACCGTAGCAC
modifications: Hepacivirus B

Tested on: HEK293 cells
Format: cell-based, human
Conditions: luminescence from secreted Gluc in supernatant 24 hours after transfection of HEK293 cells; circular RNA encoding Gluc with the named IRES (UTR truncated to 675 nt)

| Molecule | Expression |
| --- | --- |
| B1 | 8.02E+04 |
| B2 | 8.07E+04 |
| B3 | 7.84E+04 |
| B4 | 1.79E+05 |
| B5 | 6.84E+05 |
| B6 | 1.36E+05 |
| B7 | 8.80E+04 |
| B8 | 8.52E+04 |
| B9 | 8.20E+04 |
| B10 | 8.61E+04 |
| B11 | 8.55E+04 |
| B12 | 8.40E+04 |
| B13 | 8.84E+04 |
